Test results taken from patent US20220396627A1 (VERSEAU THERAPEUTICS, published 2022).

How the values were obtained:
[1] = target: T1, Human Siglec-9-Fc (recombinant human Siglec-9 extracellular domain Q18-G348 fused to human IgG1 Fc) (human); experiment: BLI binning, hSiglec-9-Fc on AHC sensor; competitor bound first (row): 9D21
Method: (§1) Epitopic diversity of functional antibodies was further assessed by antibody cross-blocking experiments, performed on a ForteBio Octet Red384 system. All samples were prepared in black 384-well flat bottom plates from (Greiner, Cat. #781209) with a working volume of 120 uL and diluted in kinetics buffer (1×DPBS containing 0.1% bovine serum albumin, 0.05% sodium azide, and 0.02% Tween®20). Anti-SIGLEC-9 antibodies and human Siglec-9-Fc protein were diluted in kinetics buffer to a final concentration of 10 ug/mL. Anti-human IgG Fc capture (AHC) biosensors (ForteBio, Cat. #18-5060) were rehydrated prior to the assay in kinetics buffer for 10 minutes then equilibrated in kinetics buffer for 60 seconds. Recombinant human Siglec-9-Fc was then immobilized for 120 seconds followed by a 30 second baseline wash in fresh kinetics buffer, 120 second association of a first antibody (antibody “a”), 30 second wash, and then 120 second association of a competitor antibody (antibody “b”). All assay steps occurred at 30° C. with an acquisition rate of 5.0 Hz.
(§2) Binning results were calculated using ForteBio Data Analysis HT software. Antibody “a” and antibody “b” steps were defined, and the maximum binding calculation was averaged at the last 10% of the step duration. Once the matrix was generated the self-self interaction was subtracted and hierarchical clustering was set with a similarity metric of Pearson and Lingang Criteria by Mean and the maximum binding nm shift is reported in Table 7 below.

Cyno SIGLEC9 = target: T2, Cyno SIGLEC9; experiment: ELISA: plate coated with 1 ug/mL cyno Siglec-9-Fc, antibody at 100 nM, HRP anti-mouse Fc secondary, RLU
T2 construct: also called cyno Siglec-9-Fc; Cynomolgus Monkey SIGLEC9-Fc
Method: (§3) ELISA plates (384-well) were coated with 1 ug/mL indicated SIGLEC protein at room temperature. The plates were washed with PBS with 0.1% Tween®20, pH 7.4 and blocked with TBS containing 3% BSA. The plates were washed and incubated with anti-SIGLEC9 antibody diluted to 100 nM. Plates were washed and incubated with HRP-coupled anti-mouse Fc secondary antibody. Plates underwent a final wash and were incubated with HRP substrate. Readout was performed using a POLARstar Omega Microplate Reader (BMG LAPTECH).

[2] = target: T1, Human Siglec-9-Fc (recombinant human …); experiment: BLI binning, hSiglec-9-Fc on AHC sensor; competitor bound first (row): 2F15
Method: as §1, §2

[3] = target: T1, Human Siglec-9-Fc (recombinant human …); experiment: BLI binning, hSiglec-9-Fc on AHC sensor; competitor bound first (row): 13J19
Method: as §1, §2

[4] = target: T1, Human Siglec-9-Fc (recombinant human …); experiment: BLI binning, hSiglec-9-Fc on AHC sensor; competitor bound first (row): 9C15
Method: as §1, §2

[5] = target: T1, Human Siglec-9-Fc (recombinant human …); experiment: BLI binning, hSiglec-9-Fc on AHC sensor; competitor bound first (row): 13H10 (printed 13H110)
Method: as §1, §2

[6] = target: T1, Human Siglec-9-Fc (recombinant human …); experiment: BLI binning, hSiglec-9-Fc on AHC sensor; competitor bound first (row): 12G23
Method: as §1, §2

[7] = target: T1, Human Siglec-9-Fc (recombinant human …); experiment: BLI binning, hSiglec-9-Fc on AHC sensor; competitor bound first (row): 12P18
Method: as §1, §2

[8] = target: T1, Human Siglec-9-Fc (recombinant human …); experiment: BLI binning, hSiglec-9-Fc on AHC sensor; competitor bound first (row): 3L02
Method: as §1, §2

Human SIGLEC7 = target: T3, Human SIGLEC7; experiment: ELISA: plate coated with 1 ug/mL human Siglec-7-Fc, antibody at 100 nM, HRP anti-mouse Fc secondary, RLU
T3 construct: also called human Siglec-7-Fc
Method: as §3

[9] = target: T1, Human Siglec-9-Fc (recombinant human …); experiment: BLI binning, hSiglec-9-Fc on AHC sensor; competitor bound first (row): 13O18
Method: as §1, §2

[10] = target: T1, Human Siglec-9-Fc (recombinant human …); experiment: BLI binning, hSiglec-9-Fc on AHC sensor; competitor bound first (row): 12L19
Method: as §1, §2

T1 sequence (chain, as listed by the source limits assumed): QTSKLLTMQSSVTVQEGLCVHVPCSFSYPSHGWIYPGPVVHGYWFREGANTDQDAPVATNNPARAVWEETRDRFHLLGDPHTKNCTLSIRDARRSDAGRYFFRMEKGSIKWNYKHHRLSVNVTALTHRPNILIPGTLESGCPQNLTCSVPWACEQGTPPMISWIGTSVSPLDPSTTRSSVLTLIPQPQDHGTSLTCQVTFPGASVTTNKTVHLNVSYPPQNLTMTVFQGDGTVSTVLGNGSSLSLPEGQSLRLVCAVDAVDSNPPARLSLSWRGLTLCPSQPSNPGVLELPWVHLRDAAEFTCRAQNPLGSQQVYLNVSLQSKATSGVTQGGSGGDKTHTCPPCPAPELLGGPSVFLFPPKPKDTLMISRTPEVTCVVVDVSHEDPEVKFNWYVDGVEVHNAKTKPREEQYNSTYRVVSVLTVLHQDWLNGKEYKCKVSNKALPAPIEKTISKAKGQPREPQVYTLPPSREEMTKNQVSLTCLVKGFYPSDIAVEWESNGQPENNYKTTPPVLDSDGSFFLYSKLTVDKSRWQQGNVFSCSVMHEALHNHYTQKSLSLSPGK
T3 sequence (Fc fusion chain, as listed by the source): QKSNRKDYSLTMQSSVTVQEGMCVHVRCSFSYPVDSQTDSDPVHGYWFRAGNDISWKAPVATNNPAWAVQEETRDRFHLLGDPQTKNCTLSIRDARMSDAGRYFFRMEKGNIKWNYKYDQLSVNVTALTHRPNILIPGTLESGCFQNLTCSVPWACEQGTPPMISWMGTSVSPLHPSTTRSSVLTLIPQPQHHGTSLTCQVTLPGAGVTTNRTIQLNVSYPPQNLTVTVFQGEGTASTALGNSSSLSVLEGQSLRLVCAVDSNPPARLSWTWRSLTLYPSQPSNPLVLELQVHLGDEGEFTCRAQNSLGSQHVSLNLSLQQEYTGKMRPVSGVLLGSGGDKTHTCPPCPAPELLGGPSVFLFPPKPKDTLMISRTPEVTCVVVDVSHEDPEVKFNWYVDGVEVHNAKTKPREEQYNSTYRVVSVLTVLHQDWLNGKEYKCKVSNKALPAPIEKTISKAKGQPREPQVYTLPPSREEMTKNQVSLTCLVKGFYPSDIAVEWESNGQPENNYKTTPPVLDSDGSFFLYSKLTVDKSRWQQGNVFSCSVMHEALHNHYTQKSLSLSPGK
T2 sequence (Fc fusion chain, as listed by the source): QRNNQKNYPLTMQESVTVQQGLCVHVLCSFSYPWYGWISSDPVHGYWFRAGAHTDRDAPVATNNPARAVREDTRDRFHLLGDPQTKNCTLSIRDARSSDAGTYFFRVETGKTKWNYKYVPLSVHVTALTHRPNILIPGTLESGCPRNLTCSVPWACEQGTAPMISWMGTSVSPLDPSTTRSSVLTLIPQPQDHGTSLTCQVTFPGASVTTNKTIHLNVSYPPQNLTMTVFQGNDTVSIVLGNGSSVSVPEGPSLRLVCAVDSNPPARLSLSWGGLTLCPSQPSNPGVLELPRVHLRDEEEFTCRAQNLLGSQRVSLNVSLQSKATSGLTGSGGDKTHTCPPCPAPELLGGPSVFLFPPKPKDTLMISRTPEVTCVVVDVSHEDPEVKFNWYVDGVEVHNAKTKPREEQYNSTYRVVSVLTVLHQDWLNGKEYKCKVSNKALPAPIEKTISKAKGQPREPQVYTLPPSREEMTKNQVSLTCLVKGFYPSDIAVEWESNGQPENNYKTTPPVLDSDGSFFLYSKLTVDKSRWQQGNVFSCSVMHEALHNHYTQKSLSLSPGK

Row | Binder | maximum binding nm shift [1] [nm] | binding result (Cyno SIGLEC9) | maximum binding nm shift [2] [nm] | maximum binding nm shift [3] [nm] | maximum binding nm shift [4] [nm] | maximum binding nm shift [5] [nm] | maximum binding nm shift [6] [nm] | maximum binding nm shift [7] [nm] | maximum binding nm shift [8] [nm] | binding result (Human SIGLEC7) | maximum binding nm shift [9] [nm] | maximum binding nm shift [10] [nm]
1 | 12L19 (antibody, V domains shown) VH: QVTLKESGPGILQPSQTLSLTCSFSGFSLNTFGMAVGWIRQPSGKGLEWLAHIWWDDSYYFNPALRSRLTISKDTSKNQVFLTIANVDTADTATYYCTRIPDDYDDYAMDYWGQGTSVTVSS VL: DVVMTQTPLSLPVSLGDQASISCRSSQSLVHSNGNTYLHWYLQKPGQSPKLLVYKVSNRFSGVPDRFSGSGSGTDFTLKISRVEAEDLGVYFCSQNTHIPYTFGGGTKLEIK | 0.263 | no binding (tested: 100 nM) | 0.198 | 0.175 | 0.231 | -0.02 | 0.185 | 0.379 | 0.09 | no binding (tested: 100 nM) | 0.202 | 
2 | 9D21 (antibody, V domains shown) VH: QVQLKESGPGLVAPSQSLSITCTVSGFSLTRYGVSWVRQPPGKGLEWLGVIWGDGSTNYHSALISRLSISKDNSKSQVFLKLNSLQTDDTATYYCARPYYGFFDYWGQGTTLTVSS VL: SIVMTQTPKFLLVSAGDRVTITCKASQSVSNAVAWYQQKPGQSPKMLIYYASNRYTGVPDRFTGSGYGTDFTFTISTVQAEDLAVYFCQQDYSSPYTFGGGTKLEIK |  | binds | 0.619 | -0.022 | 0.561 | 0.686 | 0.524 | 0.658 | 0.745 | binds | 0.495 | 0.73
3 | 12P18 (antibody, V domains shown) VH: QVQLQQSGAELVRPGASVTLSCKASGYTFTDYEMHWVKQTPVHGLEWIGAIDPEAGGTAYNRKFKGKAILTADKSSSTAYMELRSLTSEDSAVYYCTNLGRDYWGQGTTLTVSS VL: DIVMSQSPSSLAVSVGEKVTMSCKSSQSLLYSSTQKNYLAWYQQKPGQSPKRLIYWASTRESGVPDRFTGSGSGTDFTLTISSVKAEDLAVYYCQQYYSYWTFGGGTKLEIK | 0.349 | no binding (tested: 100 nM) | 0.352 | 0.324 | 0.03 | 0.336 | 0.439 |  | 0.463 | no binding (tested: 100 nM) | 0.358 | 0.518
4 | 9C15 (antibody, V domains shown) VH: QVQLQQPGAELVKPGASVKMSCKASGYTFTSYWITWLNQRPGQGLEWIGDIYPGSGGTNYNERFKSKATLTVDTSSSTAYMQLSSLTSEDSAVYYCARSGGWAMDYWGQGTSVTVSS VL: DIQMTQTTSSLSASLGDRVTISCRASQDISNYLNWYQQKPDGTVKLLIYYKSGLHSGVPSRFSGSGSGTDYSLTISNLEQEDIATYFCQQGNTLPFTFGGGTKLEIK | 0.395 |  | 0.399 | 0.282 |  | 0.336 | 0.352 | 0.003 | 0.472 |  | 0.392 | 0.392
5 | 3L02 (antibody, V domains shown) VH: DVQLQESGPGMVKPSQSLSLTCTVTGYSITSGYDWHWIRHFPGNKLEWMGYISYSAGTNYNPSLKSRISITHDTSKNHFFLKLNSVTTEDTATYYCAREGLTAYWYFDVWGTGTTVTVSS VL: DIVMTQSQKFMSTSVGDRVSVTCKASQTVGTNVAWYQQKPGQSPKPLIYSASYRYSGVPDRFTGSGSGTDFTLTISNVQSEDLAEYFCQQYDSFPLTFGSGTKLEIK |  |  |  |  |  |  |  |  |  | no binding (tested: 100 nM) |  | 
6 | 12G23 (antibody, V domains shown) VH: EVQLQQSGPELVRPGASVKMSCKASGYTFTDYNMHWVKQSHGKSLEWIGYINPNNGGTSYNQKFKGKATLTVNKSSSTAYMELRSLTSDDSAVYYCAREGYGNYPFYWGQGTTLTVSS VL: DIVLTQSPASLAVSLGQRVTISCRGSESVEYYGTSLMQWYQQKPGQPPKLLIYAASNVESGVPARFSGSGSGTDFSLNIHPVEEDDIAMYFCQQDRKVPYTFGGGTKLEIK | 0.162 |  | 0.001 | 0.139 | 0.233 | 0.242 |  | 0.231 | 0.277 |  | 0.011 | 0.263
7 | 13O18 (antibody, V domains shown) VH: EVQLQQSGPELVRPGASVKMSCKASGYTFTDYNMHWVKQSHGKSLEWIGYINPNNGGTTYNQNFKGKATLTVNKSSSTAYMELRSLTSEDSAVYYCAREGYGNYPFYWGQGTTLTVSS VL: DIVLTQSPASLAVSLGQRVTISCRASESVEYYGTSLMQWYQQKPGQPPKLLIYAASNVESGVPARFSGSGSGTDFSLNIHPVEEDDIAMFFCQQDRKVPYTFGGGTKLEIK | 0.163 |  | 0.003 | 0.135 | 0.232 | 0.224 | -0.016 | 0.228 | 0.271 |  |  | 0.251
